B1: RapM (Streptomyces hygroscopicus) (protein)
chain: MIQPDVVTAFTAVRDINLDEPGTPQAETKAATFKSASSSIYDLAASMSAKGQLWNWGVHDSEFVAEIEARLPGFTEYGTDGFSEQLYYLALRDLPKGLESCDGRTVLEVGCGMGEGLNFLSRLVPTARMTGLDLAPKAIASATATLSRGDTLRFVQGDAEELPFEDSSVDVLVNIESSHTYPNLGRFLREAARALRRGGALSHIDVFTRQRLEAMRRITTEIPELKWVSDHDISDQVRAAVRRRMPPDSHLRSTLNKQRMNRLARTLALHSQITVFGGTFADYQPPASVKMLSRLGLVPPMDSLPMETYRHQIAVRV
notes: wild-type rapM in pET28a(+) (NdeI/XhoI), N-terminal His6 tag, E. coli BL21 (DE3), Ni-NTA

Experiments:
[1] = target: T1, hMAT2A (Homo sapiens, UniProt P31153, I322V); test: HILIC HPLC of AdoMet analogue formation; format: biochemical; conditions: ATP 1.5 mM, substrate 1.5 mM, MgCl2 3 mM, pH 7.4, 30 °C
T1 construct: gene MAT2A; pNIC28-Bsa4-hMAT2A, His-tagged, E. coli Rosetta 2, Ni-NTA; rows are the I322V mutant
T1 sequence (P31153 whole entry I322V): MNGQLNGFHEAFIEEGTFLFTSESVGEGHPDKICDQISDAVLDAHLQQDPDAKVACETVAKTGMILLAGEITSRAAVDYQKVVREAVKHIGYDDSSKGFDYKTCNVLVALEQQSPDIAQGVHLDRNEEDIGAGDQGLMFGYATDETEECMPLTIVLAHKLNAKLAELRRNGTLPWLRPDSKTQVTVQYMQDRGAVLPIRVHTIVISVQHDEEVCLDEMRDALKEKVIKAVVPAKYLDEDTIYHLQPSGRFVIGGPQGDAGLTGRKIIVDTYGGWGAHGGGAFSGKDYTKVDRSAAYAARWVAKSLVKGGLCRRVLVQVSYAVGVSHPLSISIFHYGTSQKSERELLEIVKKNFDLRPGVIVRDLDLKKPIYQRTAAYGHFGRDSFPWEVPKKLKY

[2] = substrate: C/C1=C\[C@@H](C)C(=O)C[C@@H]([C@H](C)C[C@@H]2CC[C@@H](O)[C@H](O)C2)OC(=O)[C@@H]2CCCCN2C(=O)C(=O)[C@]2(O)O[C@@H](CC[C@H]2C)C[C@H](O)/C(C)=C/C=C/C=C/[C@@H](C)C[C@@H](C)C(=O)[C@H](O)[C@@H]1O; test: RP-HPLC methyltransferase assay; format: biochemical, Streptomyces hygroscopicus; conditions: AdoMet 500 µM; BC231 2.5–250 µM

| Molecule | HILIC HPLC of AdoMet analogue formation [1] | Km [2] [µM] | kcat [2] [min^–1] |
| --- | --- | --- | --- |
| C=CCSCC[C@H](N)C(=O)O [S-allyl-L-homocysteine] | evaluated with L-ethionine and S-allyl-L-homocysteine (Sahc) as substrates |  |  |
| B1 |  | 48.9 ± 7.1 | 1.47 ± 0.072 |

— PMC5729408, “Site-specific bioalkylation of rapamycin by the RapM 16-O-methyltransferase” (Chemical Science, 2015)
